Laboratory results from patent US20030157096A1.

Legend:
[1] = target: IL-TIF protein (human) (human) (UniProt Q9GZX6); test: cell-based or functional assay
[2] = target: zcytor11 and CRF2-4 receptors co-expressed on transfected BaF3 or BHK cells (human) (UniProt Q08334); test: cell-based or functional assay
Chain of zcytor11 and CRF2-4 receptors co-expressed on transfected BaF3 or BHK cells (human) (chain, as listed by the source limits assumed, chain 1 of 2): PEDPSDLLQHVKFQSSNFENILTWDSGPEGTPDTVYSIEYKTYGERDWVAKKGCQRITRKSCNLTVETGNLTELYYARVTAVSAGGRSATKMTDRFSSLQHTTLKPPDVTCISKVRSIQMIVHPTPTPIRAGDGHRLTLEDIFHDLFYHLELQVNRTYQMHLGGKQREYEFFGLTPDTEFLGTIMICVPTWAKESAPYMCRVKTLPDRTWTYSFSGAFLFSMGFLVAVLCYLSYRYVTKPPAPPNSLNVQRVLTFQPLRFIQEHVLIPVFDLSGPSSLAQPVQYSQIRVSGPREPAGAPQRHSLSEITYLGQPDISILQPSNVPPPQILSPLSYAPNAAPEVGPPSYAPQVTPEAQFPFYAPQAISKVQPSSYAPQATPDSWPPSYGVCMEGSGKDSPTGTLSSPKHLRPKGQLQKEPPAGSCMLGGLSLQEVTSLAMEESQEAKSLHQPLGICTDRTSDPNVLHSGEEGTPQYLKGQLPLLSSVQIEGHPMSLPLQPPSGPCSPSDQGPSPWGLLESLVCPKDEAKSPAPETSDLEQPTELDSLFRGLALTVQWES
Chain of zcytor11 and CRF2-4 receptors co-expressed on transfected BaF3 or BHK cells (human) (Q08334 20-325 limits assumed, chain 2 of 2): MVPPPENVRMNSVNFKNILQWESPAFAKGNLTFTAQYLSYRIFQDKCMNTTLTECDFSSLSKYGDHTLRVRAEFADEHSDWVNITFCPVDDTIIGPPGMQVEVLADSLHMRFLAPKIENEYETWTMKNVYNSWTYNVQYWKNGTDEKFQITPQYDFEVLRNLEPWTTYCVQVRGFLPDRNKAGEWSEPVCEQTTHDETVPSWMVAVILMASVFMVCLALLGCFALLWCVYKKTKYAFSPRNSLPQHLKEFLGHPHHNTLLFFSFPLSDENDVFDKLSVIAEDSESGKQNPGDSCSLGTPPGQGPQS

Chain of CRF2-4/zcytor11-Fc soluble receptor heterodimer (Fc fusion) (chain): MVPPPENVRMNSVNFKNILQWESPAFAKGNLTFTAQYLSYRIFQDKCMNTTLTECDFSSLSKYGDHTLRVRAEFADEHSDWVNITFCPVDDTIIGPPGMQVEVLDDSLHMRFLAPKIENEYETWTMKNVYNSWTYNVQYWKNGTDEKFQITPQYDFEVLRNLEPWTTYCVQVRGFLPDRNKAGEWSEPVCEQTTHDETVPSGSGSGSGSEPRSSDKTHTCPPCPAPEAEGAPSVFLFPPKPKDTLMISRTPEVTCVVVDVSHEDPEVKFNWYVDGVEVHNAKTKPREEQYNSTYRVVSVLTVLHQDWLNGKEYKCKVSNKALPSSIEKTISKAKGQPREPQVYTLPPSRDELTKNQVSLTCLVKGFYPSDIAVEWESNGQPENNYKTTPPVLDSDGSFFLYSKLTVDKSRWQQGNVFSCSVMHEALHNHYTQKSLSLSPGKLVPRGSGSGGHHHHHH
Chain of CRF2-4/zcytor11-Fc soluble receptor heterodimer (Fc fusion) (chain): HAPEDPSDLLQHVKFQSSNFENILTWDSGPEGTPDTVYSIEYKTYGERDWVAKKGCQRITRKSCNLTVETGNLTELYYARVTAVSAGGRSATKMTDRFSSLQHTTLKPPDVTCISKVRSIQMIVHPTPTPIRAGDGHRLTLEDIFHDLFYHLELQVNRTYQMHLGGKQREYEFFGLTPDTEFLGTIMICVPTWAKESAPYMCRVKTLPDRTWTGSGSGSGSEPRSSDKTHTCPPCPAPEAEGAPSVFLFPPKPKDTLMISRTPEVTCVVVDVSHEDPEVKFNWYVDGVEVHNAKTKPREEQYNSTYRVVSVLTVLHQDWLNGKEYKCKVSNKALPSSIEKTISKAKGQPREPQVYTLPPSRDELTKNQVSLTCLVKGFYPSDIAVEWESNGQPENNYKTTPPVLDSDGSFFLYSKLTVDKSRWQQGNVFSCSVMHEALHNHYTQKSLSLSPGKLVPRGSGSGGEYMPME
Chain of IL-TIF protein (human) (human) (Q9GZX6 34-179 limits assumed): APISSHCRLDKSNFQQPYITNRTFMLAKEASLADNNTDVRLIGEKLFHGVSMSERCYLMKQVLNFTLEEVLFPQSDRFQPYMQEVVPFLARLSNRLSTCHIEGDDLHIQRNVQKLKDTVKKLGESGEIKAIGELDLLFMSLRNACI

| inhibition of IL-TIF-induced proliferation (Alamar Blue), concentration at which inhibition was barely detectable [1] [ng/mL] | inhibition of IL-TIF-induced proliferation (Alamar Blue), concentration giving complete inhibition [1] [ng/mL] | inhibition of IL-TIF-induced proliferation (Alamar Blue), concentration giving partial inhibition [1] [ng/mL] | Alamar Blue proliferation of BaF3/CRF2-4/zcytor11 cells, fold over background [2] [fold] | Substance |
| --- | --- | --- | --- | --- |
| 1.6 | 25 to 200 | 3.1 to 12.5 | – | CRF2-4/zcytor11-Fc soluble receptor heterodimer (Fc fusion) |
| – | – | – | 30 | IL-TIF protein (human) (from UniProt Q9GZX6 34-179) (ligand) |
